Ends that are not written are not given here. * marks the point of attachment. Biotin = O=C1N[C@H]2[C@H](CS[C@H]2CCCCC(=O)*)N1
Columns and labels:
Test in all cases: peptide or protein array; E. coli proteome chip: purified His-tagged proteins printed in duplicate on Fullmoon slides, blocked with 1% BSA; 10 nM N-terminal biotinylated LfcinB with 1% BSA, room temperature, 1 h; detected with DyLight 649-labeled streptavidin, ratio to DyLight 549-labeled anti-His antibody; ProCAT normalisation, local cut-off; triplicate chips
Conditions in all cases: both partners purified
YciT = molecular target: T1, YciT (E. coli K-12, UniProt P76034 1-249)
T1 construct: YciT, E. coli K-12
T1 sequence (looked up): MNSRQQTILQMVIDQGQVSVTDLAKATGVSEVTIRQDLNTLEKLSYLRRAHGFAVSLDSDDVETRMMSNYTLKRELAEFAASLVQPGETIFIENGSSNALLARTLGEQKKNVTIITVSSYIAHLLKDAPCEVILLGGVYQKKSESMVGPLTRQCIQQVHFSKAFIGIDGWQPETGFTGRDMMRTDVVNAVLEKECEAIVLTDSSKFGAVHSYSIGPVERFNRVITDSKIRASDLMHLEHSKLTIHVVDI

CbpA = molecular target: T2, CbpA (E. coli K-12, UniProt P36659 1-306)
T2 construct: CbpA, E. coli K-12
T2 sequence (looked up): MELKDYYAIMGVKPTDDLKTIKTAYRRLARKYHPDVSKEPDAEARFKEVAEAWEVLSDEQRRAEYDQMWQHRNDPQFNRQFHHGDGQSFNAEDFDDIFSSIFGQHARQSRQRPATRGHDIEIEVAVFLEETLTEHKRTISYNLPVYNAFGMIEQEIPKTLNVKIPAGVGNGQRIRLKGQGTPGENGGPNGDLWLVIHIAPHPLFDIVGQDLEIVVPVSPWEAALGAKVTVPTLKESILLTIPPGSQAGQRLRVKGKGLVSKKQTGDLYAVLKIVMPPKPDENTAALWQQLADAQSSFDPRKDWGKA

YdhS = molecular target: T3, YdhS (E. coli K-12, UniProt P77148 1-534)
T3 construct: YdhS, E. coli K-12
T3 sequence (looked up): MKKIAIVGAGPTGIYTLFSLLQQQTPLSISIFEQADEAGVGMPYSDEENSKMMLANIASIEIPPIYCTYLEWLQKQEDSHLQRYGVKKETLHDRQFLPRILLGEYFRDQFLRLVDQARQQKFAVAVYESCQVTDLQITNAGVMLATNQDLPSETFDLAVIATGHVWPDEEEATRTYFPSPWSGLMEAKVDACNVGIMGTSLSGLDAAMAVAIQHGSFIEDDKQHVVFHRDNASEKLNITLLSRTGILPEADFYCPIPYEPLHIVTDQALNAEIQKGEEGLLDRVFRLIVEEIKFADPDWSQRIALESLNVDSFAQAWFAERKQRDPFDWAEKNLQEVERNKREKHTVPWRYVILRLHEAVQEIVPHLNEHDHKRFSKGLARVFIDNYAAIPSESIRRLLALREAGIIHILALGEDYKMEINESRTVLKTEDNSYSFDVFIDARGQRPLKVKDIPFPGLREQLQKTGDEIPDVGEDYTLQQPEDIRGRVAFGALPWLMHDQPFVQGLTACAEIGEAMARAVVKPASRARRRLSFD

ArgH = molecular target: T4, ArgH (E. coli K-12, UniProt P11447 1-457)
T4 construct: ArgH, E. coli K-12
T4 sequence (looked up): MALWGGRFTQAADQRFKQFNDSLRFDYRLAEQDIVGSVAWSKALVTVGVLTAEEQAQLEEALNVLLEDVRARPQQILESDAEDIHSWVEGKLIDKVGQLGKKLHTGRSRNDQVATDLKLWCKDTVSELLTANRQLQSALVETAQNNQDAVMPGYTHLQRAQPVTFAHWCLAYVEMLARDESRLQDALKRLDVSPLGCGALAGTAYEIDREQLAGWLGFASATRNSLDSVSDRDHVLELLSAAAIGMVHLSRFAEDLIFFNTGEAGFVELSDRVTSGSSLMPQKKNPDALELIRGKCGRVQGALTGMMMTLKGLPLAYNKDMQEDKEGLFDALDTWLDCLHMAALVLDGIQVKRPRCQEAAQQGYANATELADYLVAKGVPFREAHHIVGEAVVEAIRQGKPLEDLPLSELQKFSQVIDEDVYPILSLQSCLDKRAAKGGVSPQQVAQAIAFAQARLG

YnhE = molecular target: T5, YnhE (E. coli K-12, UniProt P77522 1-495)
T5 construct: YnhE, E. coli K-12
T5 sequence (looked up): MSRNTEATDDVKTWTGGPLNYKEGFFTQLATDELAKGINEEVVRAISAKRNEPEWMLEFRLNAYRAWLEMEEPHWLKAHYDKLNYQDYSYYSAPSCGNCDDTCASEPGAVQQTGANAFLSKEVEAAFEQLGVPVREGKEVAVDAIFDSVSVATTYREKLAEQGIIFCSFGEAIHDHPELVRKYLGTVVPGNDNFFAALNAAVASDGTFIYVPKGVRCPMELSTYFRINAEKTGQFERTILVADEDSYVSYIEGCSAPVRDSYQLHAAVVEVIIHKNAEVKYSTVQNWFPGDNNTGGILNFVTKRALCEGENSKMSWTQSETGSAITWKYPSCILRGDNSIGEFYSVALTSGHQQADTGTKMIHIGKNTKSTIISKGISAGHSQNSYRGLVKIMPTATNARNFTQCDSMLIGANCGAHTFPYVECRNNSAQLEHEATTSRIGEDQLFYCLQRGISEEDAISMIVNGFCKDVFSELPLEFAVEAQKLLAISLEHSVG

Measured: binding result

B1: N-terminal biotinylated Lactoferricin B (peptide, UniProt P24627 36-60, looked up)
peptide: Biotin-FKCRRWQWRMKKLGAPSITCVRRAF
modifications: ends and bridges not checked
notes: lactoferricin B (LfcinB), cationic antimicrobial peptide of 25 amino acids; also called biotinylated LfcinB; biotin-labeled LfcinB; source: bought: Kelowna Inc
binds: YciT | CbpA | YdhS | ArgH | YnhE

— paper PMC3229523, “Identification of Lactoferricin B Intracellular Targets Using an Escherichia coli Proteome Chip” (PLoS ONE, 2011)
